The target in the experiment is Villin-1 (human (endogenous in HepG2)) (UniProt P09327). Description: co-IP.
UniProt P09327, sequence (P09327 whole entry): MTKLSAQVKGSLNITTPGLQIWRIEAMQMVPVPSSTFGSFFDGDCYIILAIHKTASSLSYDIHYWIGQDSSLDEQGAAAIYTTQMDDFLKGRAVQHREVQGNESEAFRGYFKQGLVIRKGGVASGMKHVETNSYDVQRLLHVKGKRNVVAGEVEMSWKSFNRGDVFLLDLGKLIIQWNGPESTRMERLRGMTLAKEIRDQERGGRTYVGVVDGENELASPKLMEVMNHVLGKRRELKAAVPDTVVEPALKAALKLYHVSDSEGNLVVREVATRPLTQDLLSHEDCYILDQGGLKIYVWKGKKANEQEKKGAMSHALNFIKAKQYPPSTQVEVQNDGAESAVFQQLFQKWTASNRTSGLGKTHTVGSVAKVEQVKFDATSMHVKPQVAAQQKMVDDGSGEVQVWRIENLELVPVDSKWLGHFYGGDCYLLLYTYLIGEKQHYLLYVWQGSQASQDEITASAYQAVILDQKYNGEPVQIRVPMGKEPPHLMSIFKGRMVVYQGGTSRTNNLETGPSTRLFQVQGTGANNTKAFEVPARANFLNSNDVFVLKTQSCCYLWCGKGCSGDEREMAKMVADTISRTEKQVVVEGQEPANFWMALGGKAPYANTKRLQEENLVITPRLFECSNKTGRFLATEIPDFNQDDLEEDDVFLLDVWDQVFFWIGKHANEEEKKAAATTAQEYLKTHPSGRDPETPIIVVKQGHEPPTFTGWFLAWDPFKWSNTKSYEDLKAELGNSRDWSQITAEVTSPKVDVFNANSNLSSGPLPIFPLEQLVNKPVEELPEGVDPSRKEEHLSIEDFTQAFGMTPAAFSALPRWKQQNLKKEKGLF

“ß-actin (actin, cytoplasmic 1, ACTB) (from UniProt P60709 1-375) (natural protein)”: the fold change of co-precipitated actin after fusion against control was 28.7 fold.

(Values after PMC5739296.)
